Laboratory results: the RNAGym collection of RNA variant scans (doi:10.7554/elife.90254)

B1: LINE1-full (parent)
chain: UACGUAGGUGGUUUUCCCCUGAUAGUGCUAAGGGGGCCUGGAAGUUUGGACUGGGCAGAGCUCAACACAGCGUGGCAAAGUGGCUGUGGCUAGACUGCCUCUCUGGAUUCCUCGUCACUCAGCAGGGCAUCUCUGAGAGAAAUGCC

Variants of: B1
Experiment: self-cleavage, relative activity (ratio to wild type); higher = more cleavage; in vitro, sequencing; the parent is a self-cleaving ribozyme

Variant	self-cleavage
UACGUAGGUGGUUUUCCCCUGAUAGUGCUAAGGGGGCCUGGAAGUUUGGACUGGGCAGAGCUCAACACAGCGUAGCAAAGUGGCUGUGGCUAGACUGCCUCUCUGGAUCCCUCGUCACUCAGCAGGGCAUCUCUGAGAGAAAUGCC [G74A U109C]	0.7
UACGUAGGUGGUUUUCCCCUGAUAGUGCUAAGGGGGCCUGGAAGUUUGGACUGGGCAGAGCUCAACACAGCGUCGCAAAGUGGCUGUGGCUAGACUGCCUCUCUGGAUUCCUCGUCACUCAGCAGGGCAUCACUGAGAGAAAUGCC [G74C U132A]	1.46
UACGUAGGUGGUUUUCCCCUGAUAGUGCUAAGGGGGCCUGGAAGUUUGGACUGGGCAGAGCUCAACACAGCGUAGCAAAGUGGCUGUGGCUAGACUGCCUCUCUGGAUUCCUAGUCACUCAGCAGGGCAUCUCUGAGAGAAAUGCC [G74A C113A]	0.85
UACGUAGGUGGUUUUCCCCUGAUAGUGCUAAGGGGGCCUGGAAGUUUGGACUGGGCAGAGCUCAACACAGCGUAGCAAAGUGGCUGUGGCUAGACUGCCUCUCUGGAUUCCUCGUCACUCAGCAGGGCAUCUCUGUGAGAAAUGCC [G74A A136U]	0.91
UACGUAGGUGGUUUUCCCCUGAUAGUGCUAAGGGGGCCUGGAAGUUUGGACUGGGCAGAGCUCAACACAGCGUAGCAAAGCGGCUGUGGCUAGACUGCCUCUCUGGAUUCCUCGUCACUCAGCAGGGCAUCUCUGAGAGAAAUGCC [G74A U81C]	0.78
UACGUAGGUGGUUUUCCCCUGAUAGUGCUAAGGGGGCCUGGAAGUUUGGACUGGGCAGAGCUCAACACAGCGUGACAAAGUGGCUGUGGCUAGACUGCCUCUCUGGAUUCCUCGUCCCUCAGCAGGGCAUCUCUGAGAGAAAUGCC [G75A A117C]	1.31
UACGUAGGUGGUUUUCCCCUGAUAGUGCUAAGGGGGCCUGGAAGUUUGGACUGGGCAGAGCUCAACACAGCGUGACAAAGUGGCUGUGGCUAGGCUGCCUCUCUGGAUUCCUCGUCACUCAGCAGGGCAUCUCUGAGAGAAAUGCC [G75A A94G]	0.25
UACGUAGGUGGUUUUCCCCUGAUAGUGCUAAGGGGGCCUGGAAGUUUGGACUGGGCAGAGCUCAACACAGCGUGACAAAGUGGCUGUGGCUAGUCUGCCUCUCUGGAUUCCUCGUCACUCAGCAGGGCAUCUCUGAGAGAAAUGCC [G75A A94U]	0.35
UACGUAGGUGGUUUUCCCCUGAUAGUGCUAAGGGGGCCUGGAAGUUUGGACUGGGCAGAGCUCAACACAGCGUAGCAAAGUGGCUGUGACUAGACUGCCUCUCUGGAUUCCUCGUCACUCAGCAGGGCAUCUCUGAGAGAAAUGCC [G74A G89A]	0.03
UACGUAGGUGGUUUUCCCCUGAUAGUGCUAAGGGGGCCUGGAAGUUUGGACUGGGCAGAGCUCAACACAGCGUAGCAAAGUGGCUGCGGCUAGACUGCCUCUCUGGAUUCCUCGUCACUCAGCAGGGCAUCUCUGAGAGAAAUGCC [G74A U87C]	0.08
UACGUAGGUGGUUUUCCCCUGAUAGUGCUAAGGGGGCCUGGAAGUUUGGACUGGGCAGAGCUCAACACAGCGUGACAAAGUGGCUGUGGCUAGACUGCCUCUCUGGAUUCCUCGUCACUCAGCAGGGCGUCUCUGAGAGAAAUGCC [G75A A129G]	1.61
UACGUAGGUGGUUUUCCCCUGAUAGUGCUAAGGGGGCCUGGAAGUUUGGACUGGGCAGAGCUCAACACAGCGUGACAAAGUGGCUGUGGCUAGACUGCCUCUCUGGAUUCCUCGUCACUCAGCAGGGCUUCUCUGAGAGAAAUGCC [G75A A129U]	1.13
UACGUAGGUGGUUUUCCCCUGAUAGUGCUAAGGGGGCCUGGAAGUUUGGACUGGGCAGAGCUCAACACAGCGUAGCAAAGUGGCCGUGGCUAGACUGCCUCUCUGGAUUCCUCGUCACUCAGCAGGGCAUCUCUGAGAGAAAUGCC [G74A U85C]	0.06
UACGUAGGUGGUUUUCCCCUGAUAGUGCUAAGGGGGCCUGGAAGUUUGGACUGGGCAGAGCUCAACACAGCGUAGCAAAGUGGCUGUGGCUAGACUGCCUCUCUGGAUUCCUCGUCACUCAGCAGGGCAUCUCUGAGAGAGAUGCC [G74A A141G]	0.97
UACGUAGGUGGUUUUCCCCUGAUAGUGCUAAGGGGGCCUGGAAGUUUGGACUGGGCAGAGCUCAACACAGCGUAGCAAAGUGGCUGUGGCUAGACUGCCUCUCUGGAUUCCUCGUCACUCAGCAGGGCAUCUCCGAGAGAAAUGCC [G74A U134C]	1.1
UACGUAGGUGGUUUUCCCCUGAUAGUGCUAAGGGGGCCUGGAAGUUUGGACUGGGCAGAGCUCAACACAGCGUAGCAAAGUGGCUGUGGCUAGACUGCCCCUCUGGAUUCCUCGUCACUCAGCAGGGCAUCUCUGAGAGAAAUGCC [G74A U100C]	1.62
UACGUAGGUGGUUUUCCCCUGAUAGUGCUAAGGGGGCCUGGAAGUUUGGACUGGGCAGAGCUCAACACAGCGUCGCAAAGUGGCUGUGGCUAGACUGCCUCUCUGGAUUCCUCGUCACUCAGCAGGGCAUCUCUGAGAGAAAUGCC [G74C]	1.6
UACGUAGGUGGUUUUCCCCUGAUAGUGCUAAGGGGGCCUGGAAGUUUGGACUGGGCAGAGCUCAACACAGCGUUGCAAAGUGGCUGUGGCUAGACUGCCUCUCUGGAUUCCUCGUCACUCAGCAGGGCAUCUCUGAGAGAAAUGCC [G74U]	1.4
UACGUAGGUGGUUUUCCCCUGAUAGUGCUAAGGGGGCCUGGAAGUUUGGACUGGGCAGAGCUCAACACAGCGUGACAAAGUGGCUGUGGCUAGACUGCCUCUCUGGAUUCCUCGUCACUCAGCAGGGCAUCUCUGAGAGAGAUGCC [G75A A141G]	1.16
UACGUAGGUGGUUUUCCCCUGAUAGUGCUAAGGGGGCCUGGAAGUUUGGACUGGGCAGAGCUCAACACAGCGUUGCAAAGUGGCUGUGGCUAGACUGCCUCUCUGGAUUCCCCGUCACUCAGCAGGGCAUCUCUGAGAGAAAUGCC [G74U U112C]	1.64

Variant	self-cleavage
UACGUAGGUGGUUUUCCCCUGAUAGUGCUAAGGGGGCCUGGAAGUUUGGACUGGGCAGAGCUCAACACAGCGUUGCAAAGUGGCUGUGGCUAGACUGCCUCUCUGGAUUCCUCGUCACUCAGCAGGGCAUCUCUGAGAGAAACGCC [G74U U143C]	1.48
UACGUAGGUGGUUUUCCCCUGAUAGUGCUAAGGGGGCCUGGAAGUUUGGACUGGGCAGAGCUCAACACAGCGUGACAAAGUGGCUGUGGCUAGACUGCCUCUCUGGGUUCCUCGUCACUCAGCAGGGCAUCUCUGAGAGAAAUGCC [G75A A107G]	1.66
UACGUAGGUGGUUUUCCCCUGAUAGUGCUAAGGGGGCCUGGAAGUUUGGACUGGGCAGAGCUCAACACAGCGUGACAAGGUGGCUGUGGCUAGACUGCCUCUCUGGAUUCCUCGUCACUCAGCAGGGCAUCUCUGAGAGAAAUGCC [G75A A79G]	0.83
UACGUAGGUGGUUUUCCCCUGAUAGUGCUAAGGGGGCCUGGAAGUUUGGACUGGGCAGAGCUCAACACAGCGUUGCAAAGUGGCUGUGGCUAGGCUGCCUCUCUGGAUUCCUCGUCACUCAGCAGGGCAUCUCUGAGAGAAAUGCC [G74U A94G]	0.15
UACGUAGGUGGUUUUCCCCUGAUAGUGCUAAGGGGGCCUGGAAGUUUGGACUGGGCAGAGCUCAACACAGCGUAGCAAAGUGGCUGUGGCUAGACUGCCUCUCUGGAUUCCUCGUCACUCAGCAGGGCACCUCUGAGAGAAAUGCC [G74A U130C]	0.87
UACGUAGGUGGUUUUCCCCUGAUAGUGCUAAGGGGGCCUGGAAGUUUGGACUGGGCAGAGCUCAACACAGCGUUGCAAAGUGGCUGUGGCUAGACUGCCUCACUGGAUUCCUCGUCACUCAGCAGGGCAUCUCUGAGAGAAAUGCC [G74U U102A]	1.79
UACGUAGGUGGUUUUCCCCUGAUAGUGCUAAGGGGGCCUGGAAGUUUGGACUGGGCAGAGCUCAACACAGCGUUGCAAAGUGGCUGUGGCUAGACUGCCUCUCUGGAUUCCUCGUCACUCAGCAGGGCAUCUCUGAGAGAGAUGCC [G74U A141G]	1.68
UACGUAGGUGGUUUUCCCCUGAUAGUGCUAAGGGGGCCUGGAAGUUUGGACUGGGCAGAGCUCAACACAGCGUAGCAAAGUGGCUGUGGCUAGACUGCCUCUCUGGAUUCCUCGUCACUCAGCUGGGCAUCUCUGAGAGAAAUGCC [G74A A124U]	1.22
UACGUAGGUGGUUUUCCCCUGAUAGUGCUAAGGGGGCCUGGAAGUUUGGACUGGGCAGAGCUCAACACAGCGUAGCAAAGUGGCUGUGGCUAGACUGCCUCUCAGGAUUCCUCGUCACUCAGCAGGGCAUCUCUGAGAGAAAUGCC [G74A U104A]	0.75
UACGUAGGUGGUUUUCCCCUGAUAGUGCUAAGGGGGCCUGGAAGUUUGGACUGGGCAGAGCUCAACACAGCGUAGCAAAGUGGCUGUGGCUAGACUGCCUCUCUGGAUUCCUCGCCACUCAGCAGGGCAUCUCUGAGAGAAAUGCC [G74A U115C]	1.46
UACGUAGGUGGUUUUCCCCUGAUAGUGCUAAGGGGGCCUGGAAGUUUGGACUGGGCAGAGCUCAACACAGCGUAGCAAAGUGGCUGUGGCUAGGCUGCCUCUCUGGAUUCCUCGUCACUCAGCAGGGCAUCUCUGAGAGAAAUGCC [G74A A94G]	0.15
UACGUAGGUGGUUUUCCCCUGAUAGUGCUAAGGGGGCCUGGAAGUUUGGACUGGGCAGAGCUCAACACAGCGUAGCAAAGUGGCUGUGGCUAGACUGCCUCUCUGGAUUCCUCGUCACUCUGCAGGGCAUCUCUGAGAGAAAUGCC [G74A A121U]	1.07
UACGUAGGUGGUUUUCCCCUGAUAGUGCUAAGGGGGCCUGGAAGUUUGGACUGGGCAGAGCUCAACACAGCGUAGCAAAGUGGCUGUGGCUAGACUGCCUCUCUGGAUUCCUCGUCACUCAGCAGGGCAUCUCUGAGAGAAAUACC [G74A G144A]	1.09
UACGUAGGUGGUUUUCCCCUGAUAGUGCUAAGGGGGCCUGGAAGUUUGGACUGGGCAGAGCUCAACACAGCGUAGCAAAGUGGCUGUGGCUAGACUGCCUCUCUGGAUUCCUCGUCACACAGCAGGGCAUCUCUGAGAGAAAUGCC [G74A U119A]	0.84
UACGUAGGUGGUUUUCCCCUGAUAGUGCUAAGGGGGCCUGGAAGUUUGGACUGGGCAGAGCUCAACACAGCGUAGCAAAGUGGCUGUGGCUAGACUGCCUCUCUGGAUUCCUCGUCACUCAGCAGGGCAUCUCUGAGAGAAAAGCC [G74A U143A]	1.72
UACGUAGGUGGUUUUCCCCUGAUAGUGCUAAGGGGGCCUGGAAGUUUGGACUGGGCAGAGCUCAACACAGCGUAGCAAAGUGGCUGUGGCUAGACUGCCUCUCUGGAUUCCUCGUCACUCAGCAGGGCAUCUCUGAGAGAAAGGCC [G74A U143G]	2.27
UACGUAGGUGGUUUUCCCCUGAUAGUGCUAAGGGGGCCUGGAAGUUUGGACUGGGCAGAGCUCAACACAGCGUUGCAAAGUGGCUGUGGCUAGACUGCCUCUCUGGAUUCCUCGUCUCUCAGCAGGGCAUCUCUGAGAGAAAUGCC [G74U A117U]	1.79
UACGUAGGUGGUUUUCCCCUGAUAGUGCUAAGGGGGCCUGGAAGUUUGGACUGGGCAGAGCUCAACACAGCGUAGCAAAGUGGCUGUGGCUAGACUGCCUCCCUGGAUUCCUCGUCACUCAGCAGGGCAUCUCUGAGAGAAAUGCC [G74A U102C]	1.08
UACGUAGGUGGUUUUCCCCUGAUAGUGCUAAGGGGGCCUGGAAGUUUGGACUGGGCAGAGCUCAACACAGCGUAGCAAAGUGGCUGUGGCUAGACUGCCUCUCUGGAUUCCCCGUCACUCAGCAGGGCAUCUCUGAGAGAAAUGCC [G74A U112C]	0.66
